One molecule from patent US20120107323A1, “KINASE PROTEIN BINDING INHIBITORS” (University of Florida, published 2012) can be followed below.

In assay [1] the target is T1, Insulin-like Growth Factor 1 Receptor (IGF-1R), endogenous, of C8161 and A375 melanoma cells (human, UniProt P08069). The experiment in a line: co-immunoprecipitation from C8161 tumours of mice treated with the small molecule INT2-31, densitometry of Western blot. Here is the method: (§1) (p<0.05). […] To assess the in vivo effects of INT2-31 on cell proliferation, C8161 xenografts were stained with Ki67 antibody (FIG. 20C). […] The effect of INT2-31 on the in vivo interaction of FAK and IGF-1R in C8161 tumors was analyzed by immunoprecipitation of FAK from treated and untreated tumor. […] Finally, tumor analysis for AKT activation was performed and the level of p-AKT was detected by Western blot. […] Therefore, our lead compound, INT2-31, decreases in vivo tumor growth, disrupts the in vivo interaction of FAK and IGF-1R and results in a decrease in phosphorylation of AKT.
In general terms: A western blot detects proteins with antibodies after separation by electrophoresis.

Assay [2] concerns the target T1, Insulin-like Growth Factor 1 Receptor …. The experiment in a line: co-immunoprecipitation from C8161 tumours of PBS treated mice, densitometry of Western blot. How it is done:
as §1

B1: Focal adhesion kinase (FAK), endogenous, of C8161 and A375 melanoma cells (enzyme)
chain: AAAYLDPNLNHTPNSSTKTHLGTGMERSPGAMERVLKVFHYFESNSEPTTWASIIRHGDATDVRGIIQKIVDSHKVKHVACYGFRLSHLRSEEVHWLHVDMGVSSVREKYELAHPPEEWKYELRIRYLPKGFLNQFTEDKPTLNFFYQQVKSDYMLEIADQVDQEIALKLGCLEIRRSYWEMRGNALEKKSNYEVLEKDVGLKRFFPKSLLDSVKAKTLRKLIQQTFRQFANLNREESILKFFEILSPVYRFDKECFKCALGSSWIISVELAIGPEEGISYLTDKGCNPTHLADFTQVQTIQYSNSEDKDRKGMLQLKIAGAPEPLTVTAPSLTIAENMADLIDGYCRLVNGTSQSFIIRPQKEGERALPSIPKLANSEKQGMRTHAVSVSETDDYAEIIDEEDTYTMPSTRDYEIQRERIELGRCIGEGQFGDVHQGIYMSPENPALAVAIKTCKNCTSDSVREKFLQEALTMRQFDHPHIVKLIGVITENPVWIIMELCTLGELRSFLQVRKYSLDLASLILYAYQLSTALAYLESKRFVHRDIAARNVLVSSNDCVKLGDFGLSRYMEDSTYYKASKGKLPIKWMAPESINFRRFTSASDVWMFGVCMWEILMHGVKPFQGVKNNDVIGRIENGERLPMPPNCPPTLYSLMTKCWAYDPSRRPRFTELKAQLSTILEEEKAQQEERMRMESRRQATVSWDSGGSDEAPPKPSRPGYPSPRSSEGFYPSPQHMVQTNHYQVSGYPGSHGITAMAGSIYPGQASLLDQTDSWNHRPQEIAMWQPNVEDSTVLDLRGIGQVLPTHLMEERLIRQQQEMEEDQRWLEKEERFLKPDVRLSRGSIDREDGSLQGPIGNQHIYQPVGKPDPAAPPKKPPRPGAPGHLGSLASLSSPADSYNEGVKLQPQEISPPPTANLDRSNDKVYENVTGLVKAVIEMSSKIQPAPPEEYVPMVKEVGLALRTLLATVDETIPLLPASTHREIEMAQKLLNSDLGELINKMKLAQQYVMTSLQQEYKKQMLTAAHALAVDAKNLLDVIDQARLKMLGQTRPH
On to B1, for which the “densitometry ratio of IGF-1R to FAK” value in assay [1] turned out to be 0.78; in assay [2] it was 0.98.
